Laboratory results from publication PMC9251316, “Engineering the Active Site Pocket to Enhance the Catalytic Efficiency of a Novel Feruloyl Esterase Derived From Human Intestinal Bacteria Dorea formicigenerans” (Frontiers in Bioengineering and Biotechnology, 2022).
Residue numbers refer to the chain shown, from its start. Names and notes keep the numbering of the source.

B1: DfFAE (Dorea formicigenerans; N156A) (protein)
chain: MNQKKECMDVHVNGLKFHVQTFGSGVPIIMIMGLGAPGDKWKHNYELLSKWFWCIVPDNRGAGLSDKPEAESYTTEQMADDIIGIMDALDIKKAHVMGVSMGGAIAQQVALKVPDRVLSLILTSTFASVSPAFKKALNLICELKEDTDPAVLKQLALWMTYGQYTQIHHPEKIEKSIEEDAAYPYPMPVYAYKAQCGACLSHNTAGRLHELKMPVLIAAGAKDLFMNIEKTMELVHGIPQAEFYLAPEGGHVHQWEYPEPYDSVVVGFLMKHTN
notes: E. coli T7; trimeric by SEC (117 kDa)
B2: DfFAE (Dorea formicigenerans; P149A) (protein)
chain: B1 chain with P149A, A156N
notes: as for B1
B3: DfFAE (Dorea formicigenerans; V252A) (protein)
chain: B1 chain with A156N, V252A
notes: as for B1
B4: DfFAE (Dorea formicigenerans; P186A) (protein)
chain: B1 chain with A156N, P186A
notes: as for B1
B5: DfFAE (Dorea formicigenerans) (protein)
chain: B1 chain with A156N
notes: as for B1
B6: DfFAE (Dorea formicigenerans; W255A) (protein)
chain: B1 chain with A156N, W255A
notes: as for B1

Substrate: CC(=O)Oc1ccc([N+](=O)[O-])cc1
Assay: purified protein
Format: biochemical, Dorea formicigenerans
Details: 10 mM Tris-HCl pH 8.4, 2.5% Triton X-100, 40 °C

Question: Which Km does the source give for B1 here?
Answer: 644.7 ± 40.59 µM

Question: And the kcat?
Answer: 14.8 ± 0.333 s⁻¹

Question: What about the kcat/Km of the same molecule?
Answer: 22940 ± 85.5 M⁻¹ s⁻¹

Question: Which Km does the source give for B2 here?
Answer: 803.7 ± 107.8 µM

Question: What about the kcat of the same molecule?
Answer: 17.4 ± 0.809 s⁻¹

Question: What about the kcat/Km of the same molecule?
Answer: 21690 ± 181 M⁻¹ s⁻¹

Question: Which results are given for B3?
Answer: Km: 288.9 ± 53.8 µM; kcat: 12.8 ± 0.51 s⁻¹; kcat/Km: 44130 ± 226 M⁻¹ s⁻¹

Question: What does the source list for B4?
Answer: Km: 824 ± 242.1 µM; kcat: 11.3 ± 1.21 s⁻¹; kcat/Km: 13700 ± 400 M⁻¹ s⁻¹

Question: Which results are given for B5?
Answer: Km: 572 ± 56.57 µM; kcat: 4.42 ± 0.165 s⁻¹; kcat/Km: 7730 ± 136 M⁻¹ s⁻¹

Question: With B6 as the molecule, how does the Km read?
Answer: 809.7 ± 182.4 µM

Question: And the kcat?
Answer: 12.1 ± 0.891 s⁻¹

Question: And the kcat/Km?
Answer: 14900 ± 299 M⁻¹ s⁻¹

Substrate: CCCC(=O)Oc1ccc([N+](=O)[O-])cc1
Assay: purified protein
Format: biochemical, Dorea formicigenerans
Details: 10 mM Tris-HCl pH 8.4, 2.5% Triton X-100, 40 °C

Question: What does the source list for B1?
Answer: Km: 334.3 ± 43.69 µM; kcat: 2.85 ± 0.0997 s⁻¹; kcat/Km: 8520 ± 166 M⁻¹ s⁻¹

Question: Which Km does the source give for B3 here?
Answer: 83.61 ± 8.65 µM

Question: And the kcat?
Answer: 1.07 ± 0.0216 s⁻¹

Question: What about the kcat/Km of the same molecule?
Answer: 12830 ± 124 M⁻¹ s⁻¹

Question: For B5, which Km is on record?
Answer: 357.3 ± 68.62 µM

Question: And the kcat?
Answer: 0.798 ± 0.0436 s⁻¹

Question: What about the kcat/Km of the same molecule?
Answer: 2230 ± 247 M⁻¹ s⁻¹

Substrate: CCCCCCCC(=O)Oc1ccc([N+](=O)[O-])cc1
Assay: purified protein
Format: biochemical, Dorea formicigenerans
Details: 10 mM Tris-HCl pH 8.4, 2.5% Triton X-100, 40 °C

Question: How did the Km turn out when B2 was run?
Answer: 428.8 ± 35.31 µM

Question: And the kcat?
Answer: 1.08 ± 0.0243 s⁻¹

Question: And the kcat/Km?
Answer: 2510 ± 105 M⁻¹ s⁻¹

Question: How did the Km turn out when B3 was run?
Answer: 99.87 ± 18.76 µM

Question: What about the kcat of the same molecule?
Answer: 0.52 ± 0.018 s⁻¹

Question: What about the kcat/Km of the same molecule?
Answer: 5200 ± 222 M⁻¹ s⁻¹

Question: With B5 as the molecule, how does the Km read?
Answer: 526.2 ± 73.57 µM

Question: What about the kcat of the same molecule?
Answer: 0.186 ± 0.00865 s⁻¹

Question: What about the kcat/Km of the same molecule?
Answer: 354 ± 186 M⁻¹ s⁻¹

Question: Which Km does the source give for B6 here?
Answer: 178.2 ± 13.66 µM

Question: And the kcat?
Answer: 2.87 ± 0.0543 s⁻¹

Question: And the kcat/Km?
Answer: 16100 ± 95.6 M⁻¹ s⁻¹

Biological target: feruloyl esterase from Dorea formicigenerans (DfFAE) (Dorea formicigenerans)
Assay: SEC; Superdex 200 Increase 10/300 GL; elution volume 12.9 ml; mass markers conalbumin 75 kDa and aldolase 158 kDa; apparent MW about 117 kDa
Details: not given

Question: Which stoichiometry N does the source give for “feruloyl esterase from Dorea formicigenerans (DfFAE) (enzyme)” here?
Answer: 3
